For this assay, the target named is T1, 호산구 유래 신경독(eosinophil-derived neurotoxin, EDN) (UniProt P10153 28-161).
T1 construct: also called 항원 EDN
T1 sequence (looked up): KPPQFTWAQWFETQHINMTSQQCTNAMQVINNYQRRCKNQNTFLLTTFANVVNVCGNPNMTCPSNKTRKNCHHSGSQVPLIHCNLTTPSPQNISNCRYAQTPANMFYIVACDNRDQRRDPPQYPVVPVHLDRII
Briefly: BLI (Octet), AR2G amine-reactive biosensor, antibody immobilised, EDN as analyte at 12.5, 6.25, 3.13, 1.56 and 0.78 nM, 1X kinetic buffer. Background: BLI is a label-free optical method that tracks binding on a fibre tip over time.

B1: 단일클론항체 Anti-6C5 (antibody, V domains shown)
VH: EVQLQQPGPELVKPGASVKISCKASAYSFTDYIMLWVKQSHGKSLEWIGNIHPYYGSSSYNLKFKGKATLTVDKSSSTAYMQLNSLTSEDSAVYYCAREVGFGKGGFDYWGQGTTLTVSS
VL: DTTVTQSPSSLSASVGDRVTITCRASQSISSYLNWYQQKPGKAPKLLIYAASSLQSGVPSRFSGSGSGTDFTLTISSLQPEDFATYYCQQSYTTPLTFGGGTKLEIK
notes: Whole monoclonal antibody produced from hybridoma cell line 6C5 (culture supernatant); The heavy chain ran at 50 kDa on reducing SDS-PAGE; also called Anti-6C5(6C5)
Usually Kd stands for the free concentration of one partner at which half of the binding sites on the other are occupied at equilibrium, for simple one-to-one binding. The low end stands for tighter binding, the high end for weaker binding. On to B1, for which the Kd was 0.0576 nM.

The values above are taken from KR20210073785A (dated 2021).
